{
  "source": "paper PMC6274716",
  "binders": {"B1": {"name": "Akt1-pT308 peptide (peptide)", "peptide": "Biotin-KDGATMK[pT]FCGTPEY-NH2", "modifications": "not fully specified (residue 12)"}},
  "experiment_in_all_cases": "ELISA; competition: FHA clone binding to immobilized phosphorylated Akt1 peptide in the presence of free phosphorylated peptide; IC50",
  "key": {"FHA variant B3 (yeast)": {"target": "FHA variant B3 (yeast)"}, "FHA variant E1 (yeast)": {"target": "FHA variant E1 (yeast)"}, "[1]": {"target": "FHA variant E12 (Akt1-pTBD) (yeast)"}, "FHA variant H11 (yeast)": {"target": "FHA variant H11 (yeast)"}},
  "note": "Non-standard residues stand in square brackets, D forms with d. *: point of attachment. Biotin = O=C1N[C@H]2[C@H](CS[C@H]2CCCCC(=O)*)N1; pT = C[C@@H](OP(=O)(O)O)[C@H](N)C(=O)O",
  "data": [
    {"binder": "B1", "values": [
      {"measurement": "IC50", "setting": "FHA variant B3 (yeast)", "value": 100, "unit": "µM"},
      {"measurement": "IC50", "setting": "FHA variant E1 (yeast)", "value": 1950, "unit": "nM"},
      {"measurement": "IC50", "setting": "[1]", "value": 45, "unit": "nM"},
      {"measurement": "IC50", "setting": "FHA variant H11 (yeast)", "value": 90, "unit": "nM"}
    ]}
  ]
}
